Results as given in patent US20240109974A1 (SHANDONG SIMCERE BIOPHARMACEUTICAL, published 2024).
Where a chain is given by its changes, count along the chain named. Each block holds one binder with its values, some of them ahead of it.

Legend:
[1] = molecular target: T1, human TNFR2 (Novoprotein, Cat #C830) (human, UniProt P20333 23-257, limits assumed); assay: competition ELISA: antibody titrated against human TNFα-Biotin on coated human TNFR2 (Novoprotein), detection with Streptavidin-HRP [panel C]
T1 construct: construct not described; also called human TNFR2 protein
T1 sequence (looked up): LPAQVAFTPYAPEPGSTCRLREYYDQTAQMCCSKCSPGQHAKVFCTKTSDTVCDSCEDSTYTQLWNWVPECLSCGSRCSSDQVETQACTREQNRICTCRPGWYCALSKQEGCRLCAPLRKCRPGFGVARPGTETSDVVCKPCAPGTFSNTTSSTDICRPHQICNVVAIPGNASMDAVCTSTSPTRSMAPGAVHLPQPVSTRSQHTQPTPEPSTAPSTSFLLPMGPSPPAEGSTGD
Method: (§1) 1 μg/ml human TNFR2 (Novoprotein, Cat #C830) was pre-coated with 100 μl/well […] in an ELISA plate. All the test TNFR2 antibodies were subjected to 2.5-fold gradient dilution from the highest concentration of 30 μg/ml; the diluted antibodies were mixed with 15 ng/ml human TNFα-Biotin (Acro Biosystem, Cat #TNA-H82E3) in equal volume, respectively; the resulting mixture was added to the ELISA plate at 100 μl/well, and incubated with shaking at room temperature for 2.0 hours. The plate was washed, and then a Streptavidin-HRP working solution (diluted at 1:10000) was added at 100 μl/well, and the mixture was incubated with shaking at room temperature for 40 minutes. The plate was washed again, and then the substrate TMB of HRP was added to develop colour. A stop solution was added to stop the reaction, and then a microplate reader (MD 13) was used to read the absorbance value. The inhibitory curve of an antibody was drawn with antibody concentration as the abscissa and corresponding OD value as the ordinate, and fitted with four parameters (GraphPad Prism9) to calculate the IC50 value. The smaller the IC50 value, the stronger the ability of an antibody to inhibit the binding of human TNFα to human TNFR2. The blocking effect of a humanized antibody was normalized to its corresponding human-murine chimeric antibody WT. […]

[2] = molecular target: T1, human TNFR2 (Novoprotein, Cat #C830); assay: competition ELISA: antibody titrated against human TNFα-Biotin on coated human TNFR2 (Novoprotein), detection with Streptavidin-HRP [panel A]
Method: as §1

[3] = molecular target: T2, human TNFR2 on the surface of CHO-TNFR2 cells (human, UniProt P20333 23-461); assay: flow cytometry on CHO-TNFR2 cells; EC50 against 001-WT
T2 construct: whole, on cells
T2 sequence (looked up): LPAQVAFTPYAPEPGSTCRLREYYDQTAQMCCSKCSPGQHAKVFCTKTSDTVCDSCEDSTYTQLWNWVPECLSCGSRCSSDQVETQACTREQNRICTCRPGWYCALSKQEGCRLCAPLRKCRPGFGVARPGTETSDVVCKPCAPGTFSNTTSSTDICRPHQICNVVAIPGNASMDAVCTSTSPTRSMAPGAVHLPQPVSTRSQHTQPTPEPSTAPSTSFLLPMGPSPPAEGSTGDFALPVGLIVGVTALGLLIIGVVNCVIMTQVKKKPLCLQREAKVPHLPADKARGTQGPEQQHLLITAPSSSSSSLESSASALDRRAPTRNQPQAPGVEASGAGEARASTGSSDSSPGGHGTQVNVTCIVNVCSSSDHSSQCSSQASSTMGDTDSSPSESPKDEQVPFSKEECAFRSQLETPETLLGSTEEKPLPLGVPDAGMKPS
Method: The transfected full-length plasmid of human TNFR2 was purchased from Sino Biological (Cat #HG10417-UT, NCBI Ref Seq: NM_001066.2). The experiment was conducted at a cell density within 80%. The cell medium was discarded; the cells were rinsed with PBS, and digested with 1 ml trypsin for 2 minutes; the digestion was stopped with a Ham's F12 complete medium containing 10% FBS, and then a cell suspension was made. The cell suspension was counted, and then an appropriate amount of cell suspension was centrifuged at 350×g; the supernatant was discarded; a corresponding volume of blocking solution (10% FBS+PBS) at a density of 1×10⁷ cells/ml was added to resuspend the cells, and the mixture was incubated at 4° C. for 30 minutes. After the incubation, the mixture was centrifuged at 350×g to remove the supernatant, and the cells were resuspended in a staining buffer (2% FBS+PBS) to a density of 2×10⁶ cells/ml, and spread onto a 96-well plate, with 50 μl of cell suspension added to each well for later use. The antibody was diluted with PBS for 10-fold gradient dilution from the highest concentration of 20 μg/m (twice the concentration); the diluted antibody was added to the well containing 50 μl of cell suspension, and placed on a microplate shaker for shaking at 500 rpm for 1 minute, so that the antibody was fully mixed with the cells; the mixture was incubated at 4° C. for 1 h. After the incubation, the cells were washed twice with the staining buffer, with 100 μl per well, and centrifuged at 350-g for 5 minutes, and the supernatant was discarded. The PE goat anti-Human IgG Fc antibody (ebioscience, Cat #12-4998-82) was diluted 250-fold with the staining buffer, with a volume of 100 μl per well added to the washed cell wells; the mixture was mixed evenly, and stained at 4° C. for 30 minutes. After the staining, similarly, the cells were washed twice with the staining buffer; finally, the cells were resuspended in 200 μl of staining buffer; signals were detected by a flow cytometer (Thermo Attune NxT). The stronger the signal, the stronger the binding ability of an antibody to TNFR2. The binding curve of an antibody was drawn with antibody concentration as the abscissa and corresponding mean fluorescence intensity (MFI) fold as the ordinate, and fitted with four parameters (GraphPad Prism9) to calculate the EC50 value.

B3: 001-Hu5 (antibody, V domains shown)
VH: EVQLVESGGGLVQPGGSLRLSCAASGFAFSTYDLSWVRQAPGKGLEWVAYINNGGISTYYSDTVKGRFTISRDNAKNTLYLQMNSLRAEDTAVYYCVRGPFYGSANYFDYWGQGTLVTVSS
VL: DIQMTQSPSSLSASVGDRVTITCRTSESIYSNLPWYQQKPGKSPKLLVYDATKLAEGVPSRFSGSGSGTDYTLTISSLQPEDFATYYCQHFWVTPWTFGQGTKVEIK
notes: Humanized form of #001; also called VH1 + VL4
% Relative activity (WT antibody/test antibody) [3]: 123%

B4: 001-Hu2 (antibody, V domains shown)
VH: B3 VH with T78S
VL: B3 VL with V48I, Y71F
notes: Humanized form of #001; also called VH2 + VL2
% Relative activity (WT antibody/test antibody) [3]: 48%

B5: 001-Hu3 (antibody, V domains shown)
VH: B3 VH
VL: B3 VL with S43A, V48I
notes: Humanized form of #001; also called VH1 + VL3
% Relative activity (WT antibody/test antibody) [3]: 101%

B6: 001-Hu1 (antibody, V domains shown)
VH: B3 VH
VL: B3 VL with S43A, V48L
notes: Humanized form of #001; also called VH1 + VL1
% Relative activity (WT antibody/test antibody) [3]: 78%

B7: 001-Hu4 (antibody, V domains shown)
VH: B3 VH with T78S
VL: B3 VL
notes: Humanized form of #001; also called VH2 + VL4
% Relative activity (WT antibody/test antibody) [3]: 129%

The remaining lines, values ahead:

IC50 (read off the curve) [1]: ~0.5 µg/mL
B1: 224-WT (antibody, V domains shown)
VH: EVQLQESGPEIVKPGASVKLSCTASGFNNKDIYMHWVKQRPEQGLEWIGRIDPATGNTKHDPKFQDKATLSSDTSSNTAYLQFSSLTSEDTAVYYCAHSPYGDFGAMDYWGQGTTVTVSS
VL: DIQMTQSPAIMSASLGERVTMTCTASSSVSSNYLHWYQQKPGSSPKLWIYSTSNLPSGVPARFSGSGSGTSYSLTISSMEAEDAATYYCHQYHRSPWTFGGGTKLEIK
notes: Human-murine chimeric wild-type molecule; also called human-murine chimeric antibody WT of #224

IC50 (read off the curve) [2]: ~0.6 µg/mL
B2: 001-WT (antibody, V domains shown)
VH: B3 VH with V5Q, R19N, A40T, G42E, G44R, N84S, R87K, A88S, V93M, L116T
VL: EIVMTQSPASLSLSVGETVTITCRTSESIYSNLPWYQQKQGKSPQLLVYDATKLAEGVPSRFSGSESGTQYSLKINSLQSEDFGTYYCQHFWVTPWTFGGGTKLEIK
notes: Human-murine chimeric wild-type molecule; also called human-murine chimeric antibody WT of #001
